Starred links: 1 amine or outer side, 2 acyl side, 3 side chain; linkers in the order of their positions; H or OH if unused. Non-standard residues stand in square brackets, D forms with d. No end group written: not given here. *: point of attachment. Propanoyl(3-indol-3-yl) = O=C(CCc1c[nH]c2ccccc12)*; Phe(F5) = N[C@@H](Cc1c(F)c(F)c(F)c(F)c1F)C(=O)O; Tyr(Me) = COc1ccc(C[C@H](N[*:1])C(=O)[*:2])cc1; Phe(4-NH2) = Nc1ccc(C[C@H](N)C(=O)O)cc1; Arg(Me) = CNC(=N)NCCC[C@H](N)C(=O)O; Fmoc = O=C(OCC1c2ccccc2-c2ccccc21)*; Lys(Me2) = CN(C)CCCC[C@H](N)C(=O)O; 4Pal = N[C@@H](Cc1ccncc1)C(=O)O; Cha = N[C@@H](CC1CCCCC1)C(=O)O; azaGly = NNC(=O)O
B1: des(1-3)-3-(3-Indolyl)propionyl-MS10 (peptide)
peptide: {Propanoyl(3-indol-3-yl)}-NSFGLRF-NH2
SMILES: CC(C)C[C@H](NC(=O)CNC(=O)[C@H](Cc1ccccc1)NC(=O)[C@H](CO)NC(=O)[C@H](CC(N)=O)NC(=O)CCc1c[nH]c2ccccc12)C(=O)N[C@@H](CCCNC(=N)N)C(=O)N[C@@H](Cc1ccccc1)C(N)=O
notes: also called Compound No. 114
B2: [D-Tyr1,Ala7,Arg(Me)9]MS10 (Compound No. 173) (peptide)
peptide: [dY]NWNSFAL[Arg(Me)]F-NH2
modifications: N-terminus assumed
SMILES: CNC(=N)NCCC[C@H](NC(=O)[C@H](CC(C)C)NC(=O)[C@H](C)NC(=O)[C@H](Cc1ccccc1)NC(=O)[C@H](CO)NC(=O)[C@H](CC(N)=O)NC(=O)[C@H](Cc1c[nH]c2ccccc12)NC(=O)[C@H](CC(N)=O)NC(=O)[C@H](N)Cc1ccc(O)cc1)C(=O)N[C@@H](Cc1ccccc1)C(N)=O
B3: [D-Tyr1,Cha3,Arg(Me)9]MS10 (peptide)
peptide: [dY]N[Cha]NSFGL[Arg(Me)]F-NH2
modifications: N-terminus assumed
SMILES: CNC(=N)NCCC[C@H](NC(=O)[C@H](CC(C)C)NC(=O)CNC(=O)[C@H](Cc1ccccc1)NC(=O)[C@H](CO)NC(=O)[C@H](CC(N)=O)NC(=O)[C@H](CC1CCCCC1)NC(=O)[C@H](CC(N)=O)NC(=O)[C@H](N)Cc1ccc(O)cc1)C(=O)N[C@@H](Cc1ccccc1)C(N)=O
notes: also called Compound No. 171
B4: [D-Tyr1,Ala3,Arg(Me)9]MS10 (peptide)
peptide: [dY]NANSFGL[Arg(Me)]F-NH2
modifications: N-terminus assumed
SMILES: CNC(=N)NCCC[C@H](NC(=O)[C@H](CC(C)C)NC(=O)CNC(=O)[C@H](Cc1ccccc1)NC(=O)[C@H](CO)NC(=O)[C@H](CC(N)=O)NC(=O)[C@H](C)NC(=O)[C@H](CC(N)=O)NC(=O)[C@H](N)Cc1ccc(O)cc1)C(=O)N[C@@H](Cc1ccccc1)C(N)=O
notes: also called Compound No. 169
B5: [D-Tyr1,Ser3,Arg(Me)9]MS10 (peptide)
peptide: [dY]NSNSFGL[Arg(Me)]F-NH2
modifications: N-terminus assumed
SMILES: CNC(=N)NCCC[C@H](NC(=O)[C@H](CC(C)C)NC(=O)CNC(=O)[C@H](Cc1ccccc1)NC(=O)[C@H](CO)NC(=O)[C@H](CC(N)=O)NC(=O)[C@H](CO)NC(=O)[C@H](CC(N)=O)NC(=O)[C@H](N)Cc1ccc(O)cc1)C(=O)N[C@@H](Cc1ccccc1)C(N)=O
notes: also called Compound No. 170
B6: Metastin (peptide)
peptide: GTSLSPPPESSGSRQQPGLSAPHSRQIPAPQGAVLVQREKDLPNYNWNSFGLRF
B7: des(1-2)-Fmoc-MS10 (peptide)
peptide: Fmoc-WNSFGLRF-NH2
SMILES: CC(C)C[C@H](NC(=O)CNC(=O)[C@H](Cc1ccccc1)NC(=O)[C@H](CO)NC(=O)[C@H](CC(N)=O)NC(=O)[C@H](Cc1c[nH]c2ccccc12)NC(=O)OCC1c2ccccc2-c2ccccc21)C(=O)N[C@@H](CCCNC(=N)N)C(=O)N[C@@H](Cc1ccccc1)C(N)=O
notes: also called Compound No. 54

The binders below were run against T1, human OT7T175 (metastin receptor) (human, UniProt Q969F8 1-398) (assay: cell-based or functional assay).
T1 sequence (Q969F8 whole entry L364H): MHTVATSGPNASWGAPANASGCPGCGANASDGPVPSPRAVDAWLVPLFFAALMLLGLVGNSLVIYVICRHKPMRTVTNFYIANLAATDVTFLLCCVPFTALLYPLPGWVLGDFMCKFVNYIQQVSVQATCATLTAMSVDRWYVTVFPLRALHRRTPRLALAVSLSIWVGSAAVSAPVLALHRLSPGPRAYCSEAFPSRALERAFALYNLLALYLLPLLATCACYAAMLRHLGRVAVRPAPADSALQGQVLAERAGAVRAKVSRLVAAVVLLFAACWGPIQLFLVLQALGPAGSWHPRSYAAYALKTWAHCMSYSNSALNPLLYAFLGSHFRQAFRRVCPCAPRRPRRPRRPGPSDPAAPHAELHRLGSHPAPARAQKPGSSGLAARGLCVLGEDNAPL

Binder | Ca ion level-increasing activity (FLIPR)
YNWNSXGLRF (Nal(2)6; C-terminal amide, also called Compound No. 152) [[Nal(2)6]MS10] | 5 x Metastin (1-54)
YNWNSFGLRX (Pya(4)10; C-terminal amide, also called Compound No. 17) [[Pya(4)10]MS10] | 5 x Metastin (1-54)
Fmoc-NWNSFGLRF-NH2 [des(1)-Fmoc-MS10] | 5 x Metastin (1-54)
YNWNSFGLRX (Nal(1)10; C-terminal amide, also called Compound No. 133) [[Nal(1)10]MS10] | 3 x Metastin (1-54)
YNWNSXGLRF (Nal(1)6; C-terminal amide, also called Compound No. 151) [[Nal(1)6]MS10] | 1 x Metastin (1-54)
YN[dW]NSFGLRF-NH2 [[D-Trp3]MS10] | 30 x Metastin (1-54)
LPNYNWNSFGLRF-NH2 (also called Compound No. 32) [Leu-Pro-Asn-MS10] | 10 x Metastin (1-54)
KNWNSFGLRF-NH2 [[Lys1]MS10] | 1 x Metastin (1-54)
YNWNSXGLRF (D-Tyr1; Cha6; Arg(Me)9; C-terminal amide) [[D-Tyr1,Cha6,Arg(Me)9]MS10 (Compound No. 172)] | 1 x Metastin (1-54)
Fmoc-NSFGL[Arg(Me)]F-NH2 [des(1-3)-Fmoc-[Arg(Me)9]MS10] | 1 x Metastin (1-54)
SNWNSFGLRF-NH2 [[Ser1]MS10] | 1 x Metastin (1-54)
B1 | 3 x Metastin (1-54)
B2 | 1 x Metastin (1-54)
YNWNSFGLRX (Nal(2)10; C-terminal amide, also called Compound No. 110) [[Nal(2)10]MS10] | 20 x Metastin (1-54)
YNWNSFGXRF (Nle8; C-terminal amide, also called Compound No. 105) [[Nle8]MS10] | 1 x Metastin (1-54)
YKWNSFGLRF-NH2 [[Lys2]MS10] | 1 x Metastin (1-54)
B3 | 10 x Metastin (1-54)
YNWNSFGARF-NH2 [[Ala8]MS10] | 1 x Metastin (1-54)
YNWNSFGLRX (Cha10; C-terminal amide, also called Compound No. 112) [[Cha10]MS10] | 2 x Metastin (1-54)
YNWNSFALRF-NH2 (also called Compound No. 50) [[Ala7]MS10] | 30 x Metastin (1-54)

Binder | Ca ion level-increasing activity (FLIPR)
YNWNSFGLRW-NH2 (also called Compound No. 134) [[Trp10]MS10] | 30 x Metastin (1-54)
YNWNSFGLR[Tyr(Me)]-NH2 (also called Compound No. 18) [[Tyr(Me)10]MS10] | 1 x Metastin (1-54)
YNWNLFGLRF-NH2 (also called Compound No. 24) [[Leu5]MS10] | 1 x Metastin (1-54)
YNWNSFSLRF-NH2 (also called Compound No. 101) [[Ser7]MS10] | 10 x Metastin (1-54)
DNWNSFGLRF-NH2 (also called Compound No. 75) [[Asp1]MS10] | 1 x Metastin (1-54)
B4 | 2 x Metastin (1-54)
YNWNSFGLRY-NH2 (also called Compound No. 109) [[Tyr10]MS10] | 20 x Metastin (1-54)
B5 | 1 x Metastin (1-54)
Fmoc-NSFGLRF-NH2 [des(1-3)-Fmoc-MS10] | 1 x Metastin (1-54)
YNWNSFGLR[Phe(4-NH2)]-NH2 (also called Compound No. 131) [[Phe(4NH2)10]MS10] | 3 x Metastin (1-54)
YNWNSXGLRF (Cha6; C-terminal amide, also called Compound No. 156) [[Cha6]MS10] | 2 x Metastin (1-54)
B6 | 1 x Metastin (1-54)
YNWNSFGLR[Phe(F5)]-NH2 (also called Compound No. 111) [[Phe(F5)10]MS10] | 3 x Metastin (1-54)
YNWNSFGLXF (Har9; C-terminal amide, also called Compound No. 97) [[Har9]MS10] | 10 x Metastin (1-54)
YNWNSFGL[Lys(Me2)]F-NH2 [[Lys(Me2)9]MS10] | 0.5 x Metastin (1-54)
YNWNSFGLRX (Hph10; C-terminal amide) [[Hph10]MS10] | 1 x Metastin (1-54)
B7 | 5 x Metastin (1-54)
YN[dW]NSFGL[Arg(Me)]F-NH2 (also called Compound No. 143) [[D-Trp3,Arg(Me)9]MS10] | 3 x Metastin (1-54)
[dY]NWNSFGLRF-NH2 [[D-Tyr1]MS10] | 30 x Metastin (1-54)

Biological target: T1, human OT7T175 (metastin receptor)
Assay: cell-based or functional assay
Remark: another data set of the same source

Binder | Ca ion level-increasing activity (FLIPR)
[dY]NWNSF[azaGly]L[Arg(Me)]F-NH2 (also called Compound No. 232) [[D-Tyr1,AzaGly7,Arg(Me)9]MS10] | 3 x Metastin (1-54)

Biological target: T1, human OT7T175 (metastin receptor)
Assay: cell-based or functional assay
Remark: another data set of the same source

Binder | Ca ion level-increasing activity (FLIPR)
[dY]N[4Pal]NSF[azaGly]L[Arg(Me)]F-NH2 (also called Compound No. 286) [[D-Tyr1,Pya(4)3,AzaGly7,Arg(Me)9]MS10] | 2 x Metastin (1-54)

Biological target: T1, human OT7T175 (metastin receptor)
Assay: cell-based or functional assay
Remark: another data set of the same source

Binder | Ca ion level-increasing activity (FLIPR, 40 s) [EC50/MS10 EC50]
YNWNSXGLRF (Nal(2)6; C-terminal amide, also called Compound No. 152) [[Nal(2)6]MS10] | 1.4
YN[dW]NSFGLRF-NH2 [[D-Trp3]MS10] | 1.6
[dY]NWNSFGL[Arg(Me)]F-NH2 [[D-Tyr1,Arg(Me)9]MS10] | 1.6
[dY]NWNSF[azaGly]L[Arg(Me)]F-NH2 (also called Compound No. 232) [[D-Tyr1,AzaGly7,Arg(Me)9]MS10] | 3.9
B1 | 4.1
YNWNSFGLRW-NH2 (also called Compound No. 134) [[Trp10]MS10] | 0.5
YNWNSFGLRY-NH2 (also called Compound No. 109) [[Tyr10]MS10] | 2.6
YNWNSXGLRF (Cha6; C-terminal amide, also called Compound No. 156) [[Cha6]MS10] | 0.9
YNWNSFGLXF (Har9; C-terminal amide, also called Compound No. 97) [[Har9]MS10] | 2.9
[dY]NWNSFGLRF-NH2 [[D-Tyr1]MS10] | 1.6

Biological target: T1, human OT7T175 (metastin receptor)
Assay: cell-based or functional assay
Remark: another data set of the same source

Binder | cell growth inhibition activity, IC50 [nM]
[dY]NWNSFGL[Arg(Me)]F-NH2 [[D-Tyr1,Arg(Me)9]MS10] | 87
[dY]N[4Pal]NSF[azaGly]L[Arg(Me)]F-NH2 (also called Compound No. 286) [[D-Tyr1,Pya(4)3,AzaGly7,Arg(Me)9]MS10] | 18.3

Each binder was assayed against T1, human OT7T175 (metastin receptor) (assay: competition with Cy-5 metastin (40-54) on hOT7T175-CHO cells, FMAT).

Binder | IC50 [nM]
YNWNSXGLRF (Nal(2)6; C-terminal amide, also called Compound No. 152) [[Nal(2)6]MS10] | 180
YNWNSFGLRX (Pya(4)10; C-terminal amide, also called Compound No. 17) [[Pya(4)10]MS10] | 0.0066
YNWNSFGLRX (Nal(1)10; C-terminal amide, also called Compound No. 133) [[Nal(1)10]MS10] | 330
YNWNSXGLRF (Nal(1)6; C-terminal amide, also called Compound No. 151) [[Nal(1)6]MS10] | 300
LPNYNWNSFGLRF-NH2 (also called Compound No. 32) [Leu-Pro-Asn-MS10] | 25
[dY]NWNSF[azaGly]L[Arg(Me)]F-NH2 (also called Compound No. 232) [[D-Tyr1,AzaGly7,Arg(Me)9]MS10] | 49
B1 | 550
YNWNSFGLRX (Nal(2)10; C-terminal amide, also called Compound No. 110) [[Nal(2)10]MS10] | 24
YNWNSFGXRF (Nle8; C-terminal amide, also called Compound No. 105) [[Nle8]MS10] | 880
B3 | 110
[dY]N[4Pal]NSF[azaGly]L[Arg(Me)]F-NH2 (also called Compound No. 286) [[D-Tyr1,Pya(4)3,AzaGly7,Arg(Me)9]MS10] | 17
YNWNSFGLRX (Cha10; C-terminal amide, also called Compound No. 112) [[Cha10]MS10] | 370
YNWNSFALRF-NH2 (also called Compound No. 50) [[Ala7]MS10] | 190
YNWNSFGLRW-NH2 (also called Compound No. 134) [[Trp10]MS10] | 110
YNWNSFGLR[Tyr(Me)]-NH2 (also called Compound No. 18) [[Tyr(Me)10]MS10] | 7.7
YNWNLFGLRF-NH2 (also called Compound No. 24) [[Leu5]MS10] | 0.83
YNWNSFSLRF-NH2 (also called Compound No. 101) [[Ser7]MS10] | 100
DNWNSFGLRF-NH2 (also called Compound No. 75) [[Asp1]MS10] | 880
B4 | 160
YNWNSFGLRY-NH2 (also called Compound No. 109) [[Tyr10]MS10] | 23
B5 | 260
YNWNSFGLR[Phe(4-NH2)]-NH2 (also called Compound No. 131) [[Phe(4NH2)10]MS10] | 120
YNWNSXGLRF (Cha6; C-terminal amide, also called Compound No. 156) [[Cha6]MS10] | 49
YNWNSFGLR[Phe(F5)]-NH2 (also called Compound No. 111) [[Phe(F5)10]MS10] | 140
YNWNSFGLXF (Har9; C-terminal amide, also called Compound No. 97) [[Har9]MS10] | 370
B7 | 450
YN[dW]NSFGL[Arg(Me)]F-NH2 (also called Compound No. 143) [[D-Trp3,Arg(Me)9]MS10] | 7.7

Source: patent US20090298765A1 (Takeda / Millennium, published 2009)
